According to publication PMC3547041:

Target: Type II Hsp40 Sis1 (S. cerevisiae (endogenous in yeast)) (UniProt P25294)
Assay: co-IP; yeast cell extracts in Buffer A (150 mM NaCl, 50 mM Hepes pH 7.4, 1 mM EDTA, 0.1% Triton X-100), indicated antisera 1 hour at 4°C, Protein G beads, immunoblotting; extracts with or without Apyrase (Ssa1); WT or Δhsp104 strain (Sis1)

Sequence of UniProt P25294 (P25294 whole entry): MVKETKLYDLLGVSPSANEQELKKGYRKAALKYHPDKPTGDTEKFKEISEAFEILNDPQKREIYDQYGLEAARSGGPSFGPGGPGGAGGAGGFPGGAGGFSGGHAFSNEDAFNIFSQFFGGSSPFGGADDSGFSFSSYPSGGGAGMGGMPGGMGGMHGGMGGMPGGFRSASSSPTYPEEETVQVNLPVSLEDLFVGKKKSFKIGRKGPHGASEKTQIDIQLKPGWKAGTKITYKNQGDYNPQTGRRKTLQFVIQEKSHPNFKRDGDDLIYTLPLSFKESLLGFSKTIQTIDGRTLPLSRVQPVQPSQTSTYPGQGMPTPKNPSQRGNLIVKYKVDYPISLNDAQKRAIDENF

fold change of immunoprecipitable Sis1:slGFP complexes in Δhsp104 against WT: 1.5 fold
Substance: short-lived GFP (slGFP)
